Measurements: paper PMC5737516
Like-named read-outs stand apart in the source and are kept apart here.

Assays:
Experiment in all cases: pull-down
M1BP;TRF2 [1] = molecular target: T1, M1BP;TRF2 (Drosophila melanogaster?;Drosophila …, UniProt Q9VHM3;Q9XZD9 1-418;1-632, |)
T1 sequence 1: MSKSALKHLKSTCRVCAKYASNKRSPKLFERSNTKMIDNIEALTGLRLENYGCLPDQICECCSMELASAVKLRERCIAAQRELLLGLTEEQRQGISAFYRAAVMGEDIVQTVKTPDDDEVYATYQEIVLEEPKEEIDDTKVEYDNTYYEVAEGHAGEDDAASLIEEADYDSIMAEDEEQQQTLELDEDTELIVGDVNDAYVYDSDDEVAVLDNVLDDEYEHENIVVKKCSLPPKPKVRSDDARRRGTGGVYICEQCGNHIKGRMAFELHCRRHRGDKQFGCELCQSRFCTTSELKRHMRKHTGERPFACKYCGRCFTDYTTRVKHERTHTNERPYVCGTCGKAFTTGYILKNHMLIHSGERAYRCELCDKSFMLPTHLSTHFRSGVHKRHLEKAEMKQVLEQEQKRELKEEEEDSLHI
T1 sequence 2: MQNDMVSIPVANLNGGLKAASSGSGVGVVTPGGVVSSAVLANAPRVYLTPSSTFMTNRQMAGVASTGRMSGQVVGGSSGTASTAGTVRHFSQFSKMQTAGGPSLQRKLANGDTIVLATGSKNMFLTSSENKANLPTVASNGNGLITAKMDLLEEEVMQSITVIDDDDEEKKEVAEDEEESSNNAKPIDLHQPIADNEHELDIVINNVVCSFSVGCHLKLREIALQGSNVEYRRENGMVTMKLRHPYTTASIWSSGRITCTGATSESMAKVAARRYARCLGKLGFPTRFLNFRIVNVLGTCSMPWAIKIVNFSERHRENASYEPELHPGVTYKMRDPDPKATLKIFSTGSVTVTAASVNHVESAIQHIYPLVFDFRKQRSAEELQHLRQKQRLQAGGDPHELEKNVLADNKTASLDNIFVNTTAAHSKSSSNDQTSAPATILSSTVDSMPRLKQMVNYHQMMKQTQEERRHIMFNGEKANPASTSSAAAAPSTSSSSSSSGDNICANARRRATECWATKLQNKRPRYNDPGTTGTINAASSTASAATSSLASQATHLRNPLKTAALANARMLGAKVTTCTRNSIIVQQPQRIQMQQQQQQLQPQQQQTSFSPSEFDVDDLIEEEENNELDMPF

M1BP = molecular target: T2, M1BP (UniProt Q9VHM3 1-418)
T2 sequence: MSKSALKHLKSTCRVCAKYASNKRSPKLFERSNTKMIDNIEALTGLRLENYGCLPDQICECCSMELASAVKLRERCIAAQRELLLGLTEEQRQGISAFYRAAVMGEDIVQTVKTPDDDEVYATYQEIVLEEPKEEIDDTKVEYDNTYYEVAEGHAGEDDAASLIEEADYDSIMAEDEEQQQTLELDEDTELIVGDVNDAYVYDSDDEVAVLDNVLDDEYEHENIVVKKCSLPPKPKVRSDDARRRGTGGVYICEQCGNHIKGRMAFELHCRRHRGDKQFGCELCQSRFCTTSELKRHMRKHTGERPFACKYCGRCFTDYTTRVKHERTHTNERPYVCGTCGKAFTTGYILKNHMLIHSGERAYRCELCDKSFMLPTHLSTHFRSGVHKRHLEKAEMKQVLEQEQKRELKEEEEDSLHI

M1BP;TRF2 [2] = molecular target: T1, M1BP;TRF2; remark: listed apart in the source

| Binder | binding result (M1BP;TRF2 [1]) | binding result (M1BP) | binding result (M1BP;TRF2 [2]) |
| --- | --- | --- | --- |
| RpLP1 wtMotif1 (-36 to +14) (dsDNA) DNA 1: TTCGTCATCGGCGCGGTCACACTGCATATCAACTGCTCTTTCCGGTTTAG DNA 2: CTAAACCGGAAAGAGCAGTTGATATGCAGTGTGACCGCGCCGATGACGAA | binds | binds | – |
| RpLP1 mutMotif1 (-36 to +14) (dsDNA) DNA 1: TTCGTCATCGGCGCCGTCAGAGTGCATATCAACTGCTCTTTCCGGTTTAG DNA 2: CTAAACCGGAAAGAGCAGTTGATATGCACTCTGACGGCGCCGATGACGAA | – | no binding | no binding |
| RpL30 wtMotif1 (-52 to +8) (dsDNA) DNA 1: CCCGTCGGTCACACCAACACAAACGTGGTACCCATTTCCGCCTGTTCTTCCTCTTTCTTT DNA 2: AAAGAAAGAGGAAGAACAGGCGGAAATGGGTACCACGTTTGTGTTGGTGTGACCGACGGG | binds | binds | – |
| RpL30 mutMotif1 (-52 to +8) (dsDNA) DNA 1: CCCGTCCGTCAGAGCAACACAAACGTGGTACCCATTTCCGCCTGTTCTTCCTCTTTCTTT DNA 2: AAAGAAAGAGGAAGAACAGGCGGAAATGGGTACCACGTTTGTGTTGCTCTGACGGACGGG | – | no binding | no binding |
